Measured values taken from patent US20210403601A1 (FAPON BIOTECH, published 2021).
Numbering of substitutions follows the chain as printed. Read-outs that look alike come from different tables or passages of the source.

B1: Anti-Taq 2C7 recombinant antibody (WT) (antibody, mouse IgG1, kappa, V domains shown)
VH: QVQLQQPGAELVKPGASVRLSCQTSVDTFSTYYLYWVKQRPGEGLEWIGGVNPTSNPVFDEKFKSKATLTVDTSSSTAYMQLSSLTSVDSAVYYCTRSILRRGYYPDYWGQGTALTVSS
VL: DIQMTQTTSSLSASLGDRVTISCRGSQDIQNYVNWYQQKPDGTIKLLIYFTSRLQSGIPSRFSGSGSGTDYSLTIANLEQEDIATYFCQQDDTIPVTWGAGTKVELKR
notes: Mouse antibody expressed in CHO cells; also called WT antibody; antibody of sample 1
B2: Mutation 2 (antibody, V domains shown)
VH: B1 VH with L34I, D60N
VL: B1 VL with W98F
B3: Mutation 4 (antibody)
heavy: QVQLQQPGAELVKPGASVRLSCQTSVDTFSTYYWYWVKQRPGEGLEWIGGVNPTSNPVFKEKFKSKATLTVDTSSSTAYMQLSSLTSVDSAVYYCTRSILRRGYYEDYWGQGTALTVSSAKTTPPSVYPLAPGSAAQTNSMVTLGCLVKGYFPEPVTVTWNSGSLSSGVHTFPAVLQSDLYTLSSSVTVPSSTWPSETVTCNVAHPASSTKVDKKIVPRDCGCKPCICTVPEVSSVFIFPPKPKDVLTITLTPKVTCVVVDISKDDPEVQFSWFVDDVEVHTAQTQPREEQFNSTFRSVSELPIMHQDWLNGKEFKCRVNSAAFPAPIEKTISKTKGRPKAPQVYTIPPPKEQMAKDKVSLTCMITDFFPEDITVEWQWNGQPAENYKNTQPIMDTDGSYFVYSKLNVQKSNWEAGNTFTCSVLHEGLHNHHTEKSLSHSPGK
light: DIQMTQTTSSLSASLGDRVTISCRLSQDIQNYVNWYQQKPDGTIKLLIYSTSRLQSGIPSRFSGSGSGTDYSLTIANLEQEDIATYFCQQDDTIPVTEGAGTKVELKRADAAPTVSIFPPSSEQLTSGGASVVCFLNNFYPKDINVKWKIDGSERQNGVLNSWTDQDSKDSTYSMSSTLTLTKDEYERHNSYTCEATHKTSTSPIVKSFNRNEC
B4: Mutation 3 (antibody)
heavy: B3 heavy with W34A, K60D, E106Q
light: B3 light with L25G, S50Y, E98Y
B5: Mutation 5 (antibody)
heavy: B3 heavy with W34S, K60Y, E106K
light: B3 light with L25I, S50P, E98R
B6: Mutation 1 (antibody, V domains shown)
VH: B1 VH with L34I, D60N, P106F
VL: B1 VL with G25A, F50Y, W98F
notes: also called mutation 1 antibody

Legend:
Taq DNA polymerase [1] = target: T1, Taq DNA polymerase (Thermus aquaticus, UniProt P19821 1-832); experiment: AMC sensor, antibody immobilised
T1 construct: also called Taq enzyme; Taq DNA enzyme

Taq DNA polymerase [2] = target: T1, Taq DNA polymerase; experiment: AMC sensor, antibody immobilised; remark: listed apart in the source
Taq DNA polymerase [3] = target: T1, Taq DNA polymerase; experiment: ELISA on coated Taq, antibody 0.46 ng/ml
Method: (§1) The antibody activity was detected after mutation. Taq DNA enzyme was diluted with coating solution to the specified concentration, 100 μL per well overnight at 4° C.; which was washed twice with washing solution and patted dry on the next day; with addition of blocking solution (20% BSA+80% PBS), 120 μL per well at 37° C. for 1 h and patted dry; added the diluted Taq monoclonal antibodies, 100 μL/well at 37° C. for 30 min (partial supernatant for 1 h); washed 5 times with washing solution and patted dry; added goat anti-mouse IgG-HRP at 100 μL per well at 37° C. for 30 min; washed 5 times with washing solution and patted dry; added color developing solution A (50 μL/well), added color developing solution B (50 μL/well) for 10 min; added stop solution, 50 μL/well; followed by reading the OD value at 450 nm (reference 630 nm) on the microplate reader.

Taq DNA polymerase [4] = target: T1, Taq DNA polymerase; experiment: ELISA on coated Taq, antibody 1.37 ng/ml
Method: as §1

Taq DNA polymerase [5] = target: T1, Taq DNA polymerase; experiment: ELISA on coated Taq, antibody 4.12 ng/ml
Method: as §1

Taq DNA polymerase [6] = target: T1, Taq DNA polymerase; experiment: ELISA on coated Taq, antibody 12.35 ng/ml
Method: as §1

Taq DNA polymerase [7] = target: T1, Taq DNA polymerase; experiment: ELISA on coated Taq, antibody 37.04 ng/ml
Method: as §1

Taq DNA polymerase [8] = target: T1, Taq DNA polymerase; experiment: ELISA on coated Taq, antibody 0 ng/ml (blank)
Method: as §1

Taq DNA polymerase [9] = target: T1, Taq DNA polymerase; experiment: AMC sensor, antibody immobilised; remark: listed apart in the source

T1 sequence (P19821 whole entry): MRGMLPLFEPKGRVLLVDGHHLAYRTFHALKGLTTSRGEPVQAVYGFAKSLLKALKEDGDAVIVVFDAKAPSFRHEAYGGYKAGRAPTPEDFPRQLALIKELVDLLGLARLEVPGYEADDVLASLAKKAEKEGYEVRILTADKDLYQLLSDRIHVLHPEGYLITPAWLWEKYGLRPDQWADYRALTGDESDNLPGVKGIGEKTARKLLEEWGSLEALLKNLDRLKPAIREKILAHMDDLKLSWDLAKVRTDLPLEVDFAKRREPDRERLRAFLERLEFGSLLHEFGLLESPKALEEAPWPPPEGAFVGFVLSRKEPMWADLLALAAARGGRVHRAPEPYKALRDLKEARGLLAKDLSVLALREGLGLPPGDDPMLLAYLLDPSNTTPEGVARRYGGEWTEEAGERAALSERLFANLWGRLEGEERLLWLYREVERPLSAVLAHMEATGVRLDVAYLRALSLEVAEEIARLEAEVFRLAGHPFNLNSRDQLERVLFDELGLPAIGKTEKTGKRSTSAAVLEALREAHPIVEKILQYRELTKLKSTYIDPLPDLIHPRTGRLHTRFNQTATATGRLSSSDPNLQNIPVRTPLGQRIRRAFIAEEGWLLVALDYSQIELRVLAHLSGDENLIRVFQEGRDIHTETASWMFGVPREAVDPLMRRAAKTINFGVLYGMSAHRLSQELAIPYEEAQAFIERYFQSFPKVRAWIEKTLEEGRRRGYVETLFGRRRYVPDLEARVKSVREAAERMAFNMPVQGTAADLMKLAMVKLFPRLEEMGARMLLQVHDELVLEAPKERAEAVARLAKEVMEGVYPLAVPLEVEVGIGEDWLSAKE

| Binder | Kd (Taq DNA polymerase [1]) [nM] | koff (Taq DNA polymerase [1]) [s⁻¹] | kon (Taq DNA polymerase [1]) [M⁻¹ s⁻¹] | Kd (Taq DNA polymerase [2]) [nM] | koff (Taq DNA polymerase [2]) [s⁻¹] | kon (Taq DNA polymerase [2]) [M⁻¹ s⁻¹] | OD 450 nm (Taq DNA polymerase [3]) [OD] | OD 450 nm (Taq DNA polymerase [4]) [OD] | OD 450 nm (Taq DNA polymerase [5]) [OD] | OD 450 nm (Taq DNA polymerase [6]) [OD] | OD 450 nm (Taq DNA polymerase [7]) [OD] | OD 450 nm (Taq DNA polymerase [8]) [OD] | Kd (Taq DNA polymerase [9]) [nM] | koff (Taq DNA polymerase [9]) [s⁻¹] | kon (Taq DNA polymerase [9]) [M⁻¹ s⁻¹] |
| --- | --- | --- | --- | --- | --- | --- | --- | --- | --- | --- | --- | --- | --- | --- | --- |
| B1 | 2.46 | 0.000145 | 59000 | 2.46 | 0.000145 | 59000 | 0.399 | 0.798 | 1.58 | 2.1 | 2.3 | 0.035 |  |  |  |
| B2 | 0.99 | 5.87e-05 | 59200 |  |  |  | 0.059 | 0.514 | 1 | 1.84 | 2.05 | 0.05 |  |  |  |
| B3 |  |  |  |  |  |  |  | 0.057 | 0.354 | 0.679 | 1.38 |  |  |  |  |
| B4 | 20.7 | 0.00135 | 65500 |  |  |  |  | 0.067 | 0.45 | 0.874 | 1.78 |  |  |  |  |
| B5 |  |  |  |  |  |  |  | 0.054 | 0.362 | 0.701 | 1.41 |  |  |  |  |
| B6 | 0.384 | 3.78e-05 | 98300 |  |  |  | 0.442 | 0.887 | 1.7 | 2.14 | 2.38 | 0.047 | 0.384 | 3.78e-05 | 98300 |
